Data published in US20210032331A1 (PHANES THERAPEUTICS, published 2021).
Numbering of substitutions follows the chain as printed.

T1: human LAG-3(ECD)-mFc (human, UniProt P18627 23-450)
T1 construct: also called hLAG3-mFc; human LAG-3 extracellular domain (ECD) fused to mouse Fc; not shown: mouse Fc
T1 sequence: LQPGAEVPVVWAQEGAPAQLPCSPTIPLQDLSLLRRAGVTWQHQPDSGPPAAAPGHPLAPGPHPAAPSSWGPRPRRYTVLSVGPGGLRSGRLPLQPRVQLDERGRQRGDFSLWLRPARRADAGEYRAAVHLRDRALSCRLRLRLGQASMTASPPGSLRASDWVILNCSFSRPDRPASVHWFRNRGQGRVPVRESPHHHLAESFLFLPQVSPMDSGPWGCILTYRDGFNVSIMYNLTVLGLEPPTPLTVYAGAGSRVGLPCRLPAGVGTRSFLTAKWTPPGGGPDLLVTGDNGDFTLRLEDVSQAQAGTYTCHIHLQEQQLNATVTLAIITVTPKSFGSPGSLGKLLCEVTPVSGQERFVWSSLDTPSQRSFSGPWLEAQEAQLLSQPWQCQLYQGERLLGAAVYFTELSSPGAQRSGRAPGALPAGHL

B1: B9C (antibody, V domains shown)
VH: EVQLRQSGPVLVKPGASVKMSCKASGYTFTGYYMNWVKQSHGKSLEWLAVINPYNGDTAYNRKFKGRATLTVDKSSSTAYMELNRLTSEDSAVYYCVRDDGYHVRYFDVWGTGTTVTVSS
VL: DIQMTQSPSSLSASLGERVSLTCRASQDISDSLCWLQQKPDGTIKRLIYSTSTLDSGVPKRFSGSRSGSDYSLTISSLESEDFADYYCLQYASSPPTFGGGTKLEIK
notes: Chimeric: mouse VH and VL fused to constant regions of human IgG1 heavy chain and kappa light chain; also called the chimeric version of mouse mAb B9
B2: B11C (antibody, V domains shown)
VH: EVQLQQSGPVLVRPGASVKMSCKASGYTFTNYYMNWVKQSHGKSLEWIGVINPYNGDIAYSQKFKGKATLTVDKSSSTAYMELKSLTSEDSAVYYCARDDGYYVYYFDCWGQGTTLTVSS
VL: B1 VL with S30G, D31G, C34N, Y91N, S93N
notes: Chimeric: mouse VH and VL fused to constant regions of human IgG1 heavy chain and kappa light chain; also called the chimeric version of mouse mAb B11
B3: B15 (antibody, V domains shown)
VH: EVQLQQSGAELVRPGASVKLSCTASGFNIKDDYMFWVKQRPEQGLEWIGWIDPENGDTEYASKFQGKATITADTSSNTAYLQLSSLTSEDTAVYYCTLYAYWGQGTLVTVSA
VL: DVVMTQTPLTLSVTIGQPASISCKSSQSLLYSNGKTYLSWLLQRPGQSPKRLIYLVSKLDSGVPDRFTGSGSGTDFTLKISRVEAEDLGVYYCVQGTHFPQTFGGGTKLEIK
notes: Mouse mAb from hybridoma; also called mouse anti-LAG-3 mAb B15
B4: B1C (antibody, V domains shown)
VH: DVQLQESGPGLVKPSQSLSLTCTVTGYSITSDYAWNWIRQFPGNKLEWMGYIDYSGITSYNPSLKSRISITRDTSKNQFFLQLNSVTTEDTATYYCAREDHYDLAWFAYWGQGTLVTVSA
VL: DIQMTQTTSSLSASLGDRVTISCRASQDISNYLNWYQQKPDGTVKLLIYYTSRLHSGVPSRFSGSGSGTDYSLTISNLEPEDIATYYCHQYSNRPPTFGGGTKLEIK
notes: Chimeric: mouse VH and VL fused to constant regions of human IgG1 heavy chain and kappa light chain; also called the chimeric version of mouse mAb B1
B5: B7C (antibody, V domains shown)
VH: EFQLQQSGPELVKPGASVKISCKASGYSFSDYNLNWVKQSNGKTLEWIGLINLDSAATVYNQKFKGKATLTIDQSSTTAYMQLNSLTSDDSAVYYCASYDYWGQGTTLTVSS
VL: DIQMTQSPSSLSASLGERVSLSCRASQDISHYLNWFQQKPDGTFKRLIYETSTLDFGVPKRFSGSRSGSDYSLTIGSLESEDFADYYCLQYATYPLTFGAGTKLELK
notes: Chimeric: mouse VH and VL fused to constant regions of human IgG1 heavy chain and kappa light chain; also called the chimeric version of mouse mAb B7
B6: B10C (antibody, V domains shown)
VH: EFQLQQSGPELVKPGASVKISCKASGYSFTDYNLNWVKESNGKSLEWIGLITLDYGTTIYNQKFKGKATLTVDQSSSIAYMQLNSLTSDDSAVYYCACYDYWGQGTTLTVSS
VL: B5 VL with S22T, H31N, E50A, G76S, T93S
notes: Chimeric: mouse VH and VL fused to constant regions of human IgG1 heavy chain and kappa light chain; also called the chimeric version of mouse mAb B10
B7: B3C (antibody, V domains shown)
VH: QVQLQQPGAELLKPGASVKMSCKASGYTFTSYDIHWLKQTPGQGLEWIGAIYPENGDSSYSQKFKDKATLTADKSSNTAYIHLSSLTSEDSAVYYCARGGYYDYVWFPYWGQGTLVTVSA
VL: DVVMTQTPLSLPVSLGDQASISCRSSQSILYSNGYTYLEWYLQKPGQSPKLLIYGVSNRFSGVPDRFSGSGSGTDFTLKISRVESEDMGVYYCFQGTHVPLTFGAGTKLELK
notes: Chimeric: mouse VH and VL fused to constant regions of human IgG1 heavy chain and kappa light chain; also called the chimeric version of mouse mAb B3; B3 (human IgG1 heavy chain and kappa light chain chimeric)
B8: B4C (antibody, V domains shown)
VH: B7 VH with D66G, Y102F
VL: B7 VL with L30V, S85A
notes: Chimeric: mouse VH and VL fused to constant regions of human IgG1 heavy chain and kappa light chain; also called the chimeric version of mouse mAb B4; B4 (human IgG1 heavy chain and kappa light chain chimeric)
B9: B5(H3L2) (antibody, V domains shown)
VH: QVQLVQSGAVVKKPGASVKMSCKASGYTFTGYYMNWMRQAPGQSLEWLAVINPYNGDTAYNRKFKGRATLTVDKSTSTAYMELSSLRSEDTAVYYCARDDGYHVRFFDVWGQGTTVTVSS
VL: DIQMTQSPSSLSASVGDRVTITCRSSQDISDYLSWLQQKPGGAIKSLIYSTSTLDSGVPSRFSGSRSGTDFTLTISSLQPEDFATYYCLQYASSPPTFGGGTKVEIK
notes: Humanized VH and VL fused to constant regions of human IgG4 heavy chain and kappa light chain; also called humanized B5 with B5/H3 heavy chain and B5/L2 light chain
B10: B5(H2L2) (antibody, V domains shown)
VH: B9 VH with V10E, A49G, A68V
VL: B9 VL
notes: Humanized VH and VL fused to constant regions of human IgG4 heavy chain and kappa light chain; also called humanized B5 with B5/H2 heavy chain and B5/L2 light chain
B11: B5(H4L1) (antibody, V domains shown)
VH: B9 VH with V5R, P41H, A97V
VL: B9 VL with I44P
notes: Humanized VH and VL fused to constant regions of human IgG4 heavy chain and kappa light chain; also called humanized B5 with B5/H4 heavy chain and B5/L1 light chain
B12: B5(H3L3) (antibody, V domains shown)
VH: B9 VH
VL: B9 VL with F71Y
notes: Humanized VH and VL fused to constant regions of human IgG4 heavy chain and kappa light chain; also called humanized B5 with B5/H3 heavy chain and B5/L3 light chain
B13: B5(H1L4) (antibody, V domains shown)
VH: B9 VH with V10E, M37V, A49G, A68V, A79V
VL: B9 VL with S46R, S60K, T69S, F71Y
notes: Humanized VH and VL fused to constant regions of human IgG4 heavy chain and kappa light chain; also called B5(HIL4); humanized B5 with B5/H1 heavy chain and B5/L4 light chain
B14: B5(H3L1) (antibody, V domains shown)
VH: B9 VH
VL: B9 VL with I44P
notes: Humanized VH and VL fused to constant regions of human IgG4 heavy chain and kappa light chain; also called humanized B5 with B5/H3 heavy chain and B5/L1 light chain
B15: B7(H4L5) (antibody, V domains shown)
VH: EVQLVQSGAEVKKPGASVKVSCKASGYTFSDYNLNWVRQAPGQTLEWMGLINLDSAATVYNQKFKGKATMTRDQSTSTAYMELSSLRSEDTAVYYCASYDYWGQGTLVTVSS
VL: DIQMTQSPSSLSASVGDRVTITCRASQDISHYLNWFQQKPGKAPKLLIYETSTLDFGVPSRFSGSGSGTDFTFTISSLQPEDIATYYCLQYATYPLTFGGGTKVEIK
notes: Humanized VH and VL fused to constant regions of human IgG4 heavy chain and kappa light chain; also called humanized B7 with B7/H4 heavy chain and B7/L5 light chain
B16: B7(H6L5) (antibody, V domains shown)
VH: B15 VH with V2F, T28S, R72I
VL: B15 VL
notes: Humanized VH and VL fused to constant regions of human IgG4 heavy chain and kappa light chain; also called humanized B7 with B7/H6 heavy chain and B7/L5 light chain
B17: B7(H2L8) (antibody, V domains shown)
VH: B15 VH with K67R, A68V, Q74T, A79V
VL: B15 VL with L46R
notes: Humanized VH and VL fused to constant regions of human IgG4 heavy chain and kappa light chain; also called humanized B7 with B7/H2 heavy chain and B7/L8 light chain
B18: B7(H2L5) (antibody, V domains shown)
VH: B15 VH with K67R, A68V, Q74T, A79V
VL: B15 VL
notes: Humanized VH and VL fused to constant regions of human IgG4 heavy chain and kappa light chain; also called humanized B7 with B7/H2 heavy chain and B7/L5 light chain
B19: B7(H4L8) (antibody, V domains shown)
VH: B15 VH
VL: B15 VL with L46R
notes: Humanized VH and VL fused to constant regions of human IgG4 heavy chain and kappa light chain; also called humanized B7 with B7/H4 heavy chain and B7/L8 light chain
B20: B7(H5L8) (antibody, V domains shown)
VH: B15 VH with T28S, R72I
VL: B15 VL with L46R
notes: Humanized VH and VL fused to constant regions of human IgG4 heavy chain and kappa light chain; also called humanized B7 with B7/H5 heavy chain and B7/L8 light chain
B21: B7(H3L8) (antibody, V domains shown)
VH: B15 VH with T44G, Q74T, A79V
VL: B15 VL with L46R
notes: Humanized VH and VL fused to constant regions of human IgG4 heavy chain and kappa light chain; also called humanized B7 with B7/H3 heavy chain and B7/L8 light chain
B22: B7(H1L5) (antibody, V domains shown)
VH: B15 VH with T44G, K67R, A68V, Q74T, A79V
VL: B15 VL
notes: Humanized VH and VL fused to constant regions of human IgG4 heavy chain and kappa light chain; also called humanized B7 with B7/H1 heavy chain and B7/L5 light chain
B23: B7(H1L8) (antibody, V domains shown)
VH: B15 VH with T44G, K67R, A68V, Q74T, A79V
VL: B15 VL with L46R
notes: Humanized VH and VL fused to constant regions of human IgG4 heavy chain and kappa light chain; also called humanized B7 with B7/H1 heavy chain and B7/L8 light chain
B24: B7(H6L8) (antibody, V domains shown)
VH: B15 VH with V2F, T28S, R72I
VL: B15 VL with L46R
notes: Humanized VH and VL fused to constant regions of human IgG4 heavy chain and kappa light chain; also called humanized B7 with B7/H6 heavy chain and B7/L8 light chain
B25: B7(H5L5) (antibody, V domains shown)
VH: B15 VH with T28S, R72I
VL: B15 VL
notes: Humanized VH and VL fused to constant regions of human IgG4 heavy chain and kappa light chain; also called humanized B7 with B7/H5 heavy chain and B7/L5 light chain
B26: B7(H3L5) (antibody, V domains shown)
VH: B15 VH with T44G, Q74T, A79V
VL: B15 VL
notes: Humanized VH and VL fused to constant regions of human IgG4 heavy chain and kappa light chain; also called humanized B7 with B7/H3 heavy chain and B7/L5 light chain

Each binder was assayed against T1, human LAG-3(ECD)-mFc (assay: FACS blocking assay: mAb preincubated with LAG-3(ECD)-mFc (1 µg/mL), blocked ligand MHC class II on Daudi cells, PE anti-mouse Fc).
Method: FIGS. 4A-4D show inhibition of human LAG-3 binding to MHC class II molecules by select anti-LAG-3 mAbs. An in vitro binding assay was performed using recombinant LAG-3(ECD)-mFc and Daudi cells which express human MHC class II molecules. […] The binding of LAG-3(ECD)-mFc to Daudi cells in the presence of anti-LAG-3 mAbs or a control mAb was analyzed by FACS.
(§1) Human Daudi cells were cultured in RPMI+10% FBS. Human LAG-3(ECD)-mFc protein (human LAG-3 ECD fused to mouse Fc) at 1 μg/ml final concentration was incubated with purified mouse, humanized, or chimeric anti-LAG-3 mAbs at various concentrations for 15 minutes at 4° C. The mixture was then added to 100,000 human Daudi cells in a 96-well round bottom plate, mixed and incubated for 15 minutes on ice. Cells were then centrifuged at 1,000 rpm for 5 minutes and washed with FACS buffer (PBS supplemented with 5% BSA) three times. The cells were then incubated with PE-conjugated goat anti-mouse Fc polyclonal antibodies on ice for 15 minutes, washed with FACS buffer three times and then resuspended in FACS buffer containing 0.1 μg/ml PI (propidine iodine) for live/dead cell gating. Cells were then run through the FACS Caliber instrument and the data were analyzed by the Flowjo software. Results of the inhibition of LAG-3 binding to Daudi cells by chimeric mAbs B1C, B3C, B4C, BSC, B9C, and B11C are shown in FIG. 4B.

| IC50 (read off the curve) | binding result | Binder |
| --- | --- | --- |
| ~0.06 µg/mL |  | B1 |
| ~0.1 µg/mL |  | B2 |
|  | binds | B3 |
| ~0.4 µg/mL |  | B4 |
| ~0.3 µg/mL |  | B5 |
| ~0.3 µg/mL |  | B6 |
| ~0.4 µg/mL |  | B7 |
| ~0.4 µg/mL |  | B8 |

The binders below were run against T1, human LAG-3(ECD)-mFc (assay: FACS competition: mAb preincubated with human LAG-3(ECD)-mFc (1 ug/ml); binding to MHC class II on Daudi cells detected with anti-mouse Fc-PE).
Method: as §1
The mouse anti-hLAG-3 mAbs B5 and B7 were humanized to reduce the potential of immunogenicity when used in human patients. The CDRs in both the heavy and light chains of the mouse mAb were grafted into human framework that have the highest possibility of maintaining the proper structure required for antigen binding. Backmutations from human reside to mouse residue were designed when necessary. The sequences of the humanized VH and VL regions are shown in Table 11 and Table 12, respectively. The humanized VH and VL regions were fused to the constant regions of human IgG4 heavy chain and kappa light chain, respectively, to generate humanized mAbs. Constructs corresponding to the mAb sequences were used for transient transfection in 293E cells. Purified mAbs were analyzed for their ability to inhibit hLAG-3 binding to MHC class II molecules on Daudi cells.

| IC50 | Binder |
| --- | --- |
| 2.85 nM | B9 |
| 1.59 nM | B10 |
| 5.32 nM | B11 |
| 2.91 nM | B12 |
| 0.98 nM | B13 |
| 6.77 nM | B14 |
| 1.35 nM | B15 |
| 0.78 nM | B16 |
| 0.74 nM | B17 |
| 1.59 nM | B18 |
| 0.7 nM | B19 |
| 0.72 nM | B20 |
| 0.66 nM | B21 |
| 1.59 nM | B22 |
| 0.9 nM | B23 |
| 1.19 nM | B24 |
| 0.28 nM | B25 |
| 4.18 nM | B26 |
